Reference: US20120121589A1, “MODIFIED EGFR ECTODOMAIN” (WAYNE STATE UNIVERSITY, priority 2009, published 2012)
Entries after “also recorded” stand apart in the source; their conditions may differ. Values belong to the molecule of their own block, whether it stands above or below them. *: point of attachment. Cbz = O=C(OCc1ccccc1)*; CH2F = FC*

Assays:
MDA-MB-468 cells [1] = assay: Apoptosis in MDA-MB-468 cells (DNA fragmentation ELISA, acridine orange staining); conditions: MDA-MB-468 cells preincubated with inhibitor for 3 hours, then EBIP and dasatinib; FIG. 15B
MDA-MB-468 cells [2] = assay: MTT growth assay and CalcuSyn synergy analysis in MDA-MB-468 cells; type: cell-based, human; conditions: for Dasatinib (Fa): MDA-MB-468
Description: (§1) Growth inhibition assay included the following aspects. […] At the end of the treatment period, cells were incubated with 10% of 5 mg/mL stock of MTT and incubated for 3 hours at 37° C.
(§2) Analysis of interaction between two drugs included the following aspects. Combination index (CI) method adapted for in vitro anticancer drug testing was used to determine the nature of interaction between the two agents as described by Majumdar APN, Banerjee S, Nautiyal J, et al. Curcumin synergizes with resveratrol to inhibit colon cancer. […] Based on CI values, the extent of synergism/antagonism may be determined.

MDA-MB-231 cells = assay: MTT growth assay and CalcuSyn synergy analysis in MDA-MB-231 cells; type: cell-based, human
Description: as §1, §2

MDA-MB-468 xenografts = MDA-MB-468 xenografts in SCID mice, tumor growth; type: in vivo
Description: Severe combined immunodeficient mice xenografts of MDA-MB-468 cells included the following aspects. […] When tumor burden reached 1,500 to 2,000 mg, mice were euthanized. The tumors were removed, cut into 20 to 30 mg fragment, and subsequently transplanted (s.c.) bilaterally into similarly conditioned 28 animals. […] Treatment was started on day 7 and continued until day 23. Animals and tumor burden were followed for up to 55 days. Tumor measurements were carried out at multiple time points during the experimental period. Mice were weighed and monitored for signs of toxicity. Tumor weights in SCID mice were estimated as tumor weight (mg)=(A×B2)/2, where A and B are the tumor length and width (in mm), respectively.

[3] = tested on: colon cancer HCT-116 cells; assay: MTT growth assay in colon cancer HCT-116 cells; type: cell-based
Description: as §1

EGFR = biological target: T1, EGFR (Homo sapiens, UniProt P00533); assay: TGF-α-induced tyrosine phosphorylation of EGFR (Western blot); type: cell-based; conditions: preincubation 10 μg/ml for 30 min; 10 nM TGF-α for 10 min; FIG. 4
T1 construct: endogenous in cells

c-Src = assay: TGF-α-induced phosphorylation of Src in HCT-116 cells (Western blot); type: cell-based; conditions: prior exposure, FIG. 5
[4] = tested on: Erks (extracellular signal-regulated kinases); assay: TGF-α-induced phosphorylation of ERKs in HCT-116 cells (Western blot); type: cell-based; conditions: prior exposure, FIG. 6
[5] = tested on: breast cancer SKBR-3 cells; assay: MTT growth assay in breast cancer SKBR-3 cells; type: cell-based, human; conditions: increasing concentrations, 48 h; FIG. 7
Description: as §1

HER-2 = biological target: T2, HER-2 (Homo sapiens, UniProt P04626); assay: Heregulin-induced phosphorylation of HER-2 in MDA-MB-453 cells; type: cell-based; conditions: preincubation, then heregulin, FIG. 8, FIG. 19
T2 construct: endogenous in cells; host or cells: MDA-MB-453
Excerpt: (§3) The breast cancer MDA-MB-453 cells contain high levels of HER-2 and HER-3. […] Binding of heregulin HER-3 leads to activation and subsequent heterodimerization of HER-3 with one or more EGFR family members.
(§4) Western blot analysis included the following aspects.

HER-3 = biological target: T3, HER-3 (Homo sapiens, UniProt P21860); assay: Heregulin-induced phosphorylation of HER-3 in MDA-MB-453 cells; type: cell-based; conditions: preincubation, then heregulin, FIG. 8, FIG. 19
T3 construct: endogenous in cells; host or cells: MDA-MB-453
T3 sequence (P21860 20-1342): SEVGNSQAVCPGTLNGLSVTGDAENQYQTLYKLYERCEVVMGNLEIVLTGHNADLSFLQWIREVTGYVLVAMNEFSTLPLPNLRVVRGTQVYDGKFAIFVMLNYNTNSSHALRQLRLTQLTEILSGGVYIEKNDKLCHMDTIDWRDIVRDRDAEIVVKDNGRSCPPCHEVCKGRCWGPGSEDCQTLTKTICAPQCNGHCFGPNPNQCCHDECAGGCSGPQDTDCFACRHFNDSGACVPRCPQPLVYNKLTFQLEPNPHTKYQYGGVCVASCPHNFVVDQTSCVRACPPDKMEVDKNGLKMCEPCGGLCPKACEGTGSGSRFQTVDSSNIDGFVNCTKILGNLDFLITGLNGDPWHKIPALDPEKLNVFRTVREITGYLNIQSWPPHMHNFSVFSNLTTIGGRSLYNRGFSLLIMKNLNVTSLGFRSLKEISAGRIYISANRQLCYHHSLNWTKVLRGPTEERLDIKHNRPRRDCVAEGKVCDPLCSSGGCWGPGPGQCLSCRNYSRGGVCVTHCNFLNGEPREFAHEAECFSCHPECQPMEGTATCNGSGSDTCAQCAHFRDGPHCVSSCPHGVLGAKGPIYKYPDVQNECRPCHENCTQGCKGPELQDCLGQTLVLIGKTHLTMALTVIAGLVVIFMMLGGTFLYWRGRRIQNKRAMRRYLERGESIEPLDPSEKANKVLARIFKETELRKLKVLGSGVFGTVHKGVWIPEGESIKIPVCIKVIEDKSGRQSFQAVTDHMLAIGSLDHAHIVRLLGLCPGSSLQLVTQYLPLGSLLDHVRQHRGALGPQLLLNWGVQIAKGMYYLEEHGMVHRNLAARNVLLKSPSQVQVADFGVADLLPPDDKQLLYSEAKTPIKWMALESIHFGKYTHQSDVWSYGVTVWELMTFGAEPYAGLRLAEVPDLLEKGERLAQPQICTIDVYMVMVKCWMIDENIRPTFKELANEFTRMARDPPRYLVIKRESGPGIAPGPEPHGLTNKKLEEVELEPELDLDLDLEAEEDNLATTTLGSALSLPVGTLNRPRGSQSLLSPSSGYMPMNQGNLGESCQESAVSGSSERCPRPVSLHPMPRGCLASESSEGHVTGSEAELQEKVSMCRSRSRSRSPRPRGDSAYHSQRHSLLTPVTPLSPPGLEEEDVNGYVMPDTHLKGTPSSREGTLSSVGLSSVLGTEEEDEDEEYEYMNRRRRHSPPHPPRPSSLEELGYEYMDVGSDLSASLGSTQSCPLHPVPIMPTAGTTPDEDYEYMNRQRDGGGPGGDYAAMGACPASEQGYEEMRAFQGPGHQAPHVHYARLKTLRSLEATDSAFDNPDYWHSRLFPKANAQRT
Excerpt: as §3, §4

[6] = tested on: breast cancer SKBR cell xenografts; assay: SKBR cell xenografts in SCID mice; type: in vivo; conditions: FIG. 9
Excerpt: SKBR cells express high levels of HER-2 but contain little no HER-1/EGFR or HER-3.

Molecule: Cbz-LEHD-CH2F
effect of caspase inhibitor on apoptosis induction by the combined therapy (MDA-MB-468 cells [1]): blocked apoptosis induction by the combined therapy

Molecule: Cc1nc(Nc2ncc(C(=O)Nc3c(C)cccc3Cl)s2)cc(N2CCN(CCO)CC2)n1 [Dasatinib, dasatinib]
Dasatinib (Fa) (MDA-MB-468 cells [2]; Dasatinib 0.50 μM): 0.216 | Dasatinib (Fa) (MDA-MB-468 cells [2]; Dasatinib 1.0 μM): 0.286 | Dasatinib (Fa) (MDA-MB-468 cells [2]; Dasatinib 2.0 μM): 0.315 | Dasatinib (Fa) (MDA-MB-468 cells [2]; Dasatinib 4.0 μM): 0.382 | Dasatinib (Fa) (MDA-MB-231 cells; Dasatinib 0.50 μM): 0.354 | Dasatinib (Fa) (MDA-MB-231 cells; Dasatinib 1.0 μM): 0.322 | Dasatinib (Fa) (MDA-MB-231 cells; Dasatinib 2.0 μM): 0.353 | Dasatinib (Fa) (MDA-MB-231 cells; Dasatinib 4.0 μM): 0.392 | tumor growth, significance of inhibition (MDA-MB-468 xenografts; P<0.05, FIG. 16, Table 3): no significant inhibition | tumor weight at the end of 55 days, Mean ± SD (MDA-MB-468 xenografts; day-55, dasatinib 10 mg/kg gavage and/or EBIP 25 μg/mouse s.c., every other day, day 7 to 23): 584 ± 189 mg | inhibition (suppression) of tumor growth (MDA-MB-468 xenografts; vs vehicle-treated controls, dasatinib 10 mg/kg gavage and/or EBIP 25 μg/mouse s.c., every other day): about 27%

Molecule: Cbz-IETD-CH2F
effect of caspase inhibitor on apoptosis induction by the combined therapy (MDA-MB-468 cells [1]): blocked apoptosis induction by the combined therapy

attenuation of TGF-α-induced tyrosine phosphorylation of EGFR (amino acid 845) (EGFR): greatly abrogates this stimulation
B1: ERRP: rat ERRP that includes amino acids 1-478 and includes the U region (SEQ ID NO: 16); pan-erbB inhibitor (protein, listed as Rattus norvegicus)
chain: MRPSGTARTTLLVLLTALCAAGGALEEKKVCQGTSNRLTQLGTFEDHFLSLQRMYNNCEVVLGNLEITYVQRNYDLSFLKTIQEVAGYFLIALNTVERIPSEDLQIIRGNALYENTYALAILSNYGTNRTGLRELPMRNLQEILIGAVRFSNNPILCNMDTIQWRDIVQNVFMSNMSMDLQSHPSSCPKCDPSCPNGSCWGGGEENCQKLTKIICAQQCSHRCRGRSPSDCCHNQCAAGCTGPQKSDCLVCQKFQDEATCKDTCPPLMLYNPTTYQMDVNPEGKYSFGATCVKNCPRNYVVTDHGSCVRACGPDYYEVEEDGIRKCKKCDGPCRKVCNGIGIGEFKDTLSINATNIKHFKYCTAISGDLHILPVAFKGDSFTRTPPLDPRELEILKTVKEITGSLLIQAWPENWTDLHAFENLEIIRGRTKQHGQFSLAVVGLNITSLPWQVPSLSWQAVTRPLHPLAQNRVSWDTGP
inhibition of growth ([3]; dose of 20 μg/mL, vs corresponding controls, FIG. 18): 70% | attenuation of TGF-α-induced phosphorylation of Tyr416 of c-Src (c-Src): abrogated | attenuation of TGF-α-induced phosphorylation of Erks [4]: greatly attenuated | inhibition of growth of SKBR-3 cells [5]: markedly inhibit the growth in a dose-dependent manner | inhibition of heregulin-induced phosphorylation/activation of HER-2 (HER-2): able to inhibit; also recorded: about as equally effective as EBIP | inhibition of heregulin-induced phosphorylation/activation of HER-3 (HER-3): able to inhibit; also recorded: about as equally effective as EBIP | tumor growth of SKBR xenografts ([6]; SCID mice, vs vehicle): noticeably decreased | inhibition of tumor growth ([6]; intratumoral 50 μg once a day, day 13 to 26, end of 40 day period, vs controls): over 50% | inhibition of growth of MDA-MB-468 cells (MDA-MB-468 cells [2]; immunoaffinity-purified protein, FIG. 12D): equally effective

attenuation of TGF-α-induced tyrosine phosphorylation of EGFR (amino acid 845) (EGFR): do not attenuate
B2: rEGFR-447: rat ERRP that includes amino acids 1-447 but lacks the U region (SEQ ID NO: 15) (protein, listed as Rattus norvegicus)
chain: MRPSGTARTTLLVLLTALCAAGGALEEKKVCQGTSNRLTQLGTFEDHFLSLQRMYNNCEVVLGNLEITYVQRNYDLSFLKTIQEVAGYFLIALNTVERIPSEDLQIIRGNALYENTYALAILSNYGTNRTGLRELPMRNLQEILIGAVRFSNNPILCNMDTIQWRDIVQNVFMSNMSMDLQSHPSSCPKCDPSCPNGSCWGGGEENCQKLTKIICAQQCSHRCRGRSPSDCCHNQCAAGCTGPQKSDCLVCQKFQDEATCKDTCPPLMLYNPTTYQMDVNPEGKYSFGATCVKNCPRNYVVTDHGSCVRACGPDYYEVEEDGIRKCKKCDGPCRKVCNGIGIGEFKDTLSINATNIKHFKYCTAISGDLHILPVAFKGDSFTRTPPLDPRELEILKTVKEITGSLLIQAWPENWTDLHAFENLEIIRGRTKQHGQFSLAVVGLNITS
inhibition of growth (MTT) ([3]; increasing doses, FIG. 3): only marginally effective | attenuation of TGF-α-induced phosphorylation of Tyr416 of c-Src (c-Src): less attenuation | attenuation of TGF-α-induced phosphorylation of Erks [4]: not | inhibition of growth of SKBR-3 cells [5]: neither rEGFR-447 nor hEGFR-501 caused any apparent change in the growth | inhibition of heregulin-induced phosphorylation/activation of HER-2 (HER-2): neither rEGFR-447 nor hEGFR-501 is effective; also recorded: neither rEGFR-447 nor hEGFR-501 re effective | inhibition of heregulin-induced phosphorylation/activation of HER-3 (HER-3): neither rEGFR-447 nor hEGFR-501 is effective; also recorded: neither rEGFR-447 nor hEGFR-501 re effective
